Experimental data: paper PMC6692047, “Ddc2^ATRIP promotes Mec1^ATR activation at RPA-ssDNA tracts” (PLoS Genetics, 2019)

Target: T1, Replication protein A (RPA), consisting of Rfa1, Rfa2 and Rfa3 (budding yeast, UniProt P22336 1-621; P26754 1-273; P26755 1-122)
T1 construct: Rfa1, subunit of budding yeast RPA; Rfa2, subunit of budding yeast RPA; Rfa3, subunit of budding yeast RPA; also called budding yeast RPA protein; source: purified as described [83]; copies: + +
Experiment: pull-down; streptavidin beads coated with biotinylated oligonucleotide bio-oligo(dN)80 (5 pmol), incubated with RPA (1 pmol) for 30 min, then with Mec1-Ddc2, Mec1-Ddc2-S4, MBP, MBP-Ddc2 or MBP-Ddc2-S4 (0.5 pmol) for 30 min; buffer B (20 mM Tris-HCl pH 7.5, 100 mM NaCl, 0.01% NP-40, 10% glycerol, 100 μg/ml BSA), 30°C; immunoblot of captured proteins
Conditions: both partners purified

T1 sequence (P22336 whole entry, chain 1 of 3): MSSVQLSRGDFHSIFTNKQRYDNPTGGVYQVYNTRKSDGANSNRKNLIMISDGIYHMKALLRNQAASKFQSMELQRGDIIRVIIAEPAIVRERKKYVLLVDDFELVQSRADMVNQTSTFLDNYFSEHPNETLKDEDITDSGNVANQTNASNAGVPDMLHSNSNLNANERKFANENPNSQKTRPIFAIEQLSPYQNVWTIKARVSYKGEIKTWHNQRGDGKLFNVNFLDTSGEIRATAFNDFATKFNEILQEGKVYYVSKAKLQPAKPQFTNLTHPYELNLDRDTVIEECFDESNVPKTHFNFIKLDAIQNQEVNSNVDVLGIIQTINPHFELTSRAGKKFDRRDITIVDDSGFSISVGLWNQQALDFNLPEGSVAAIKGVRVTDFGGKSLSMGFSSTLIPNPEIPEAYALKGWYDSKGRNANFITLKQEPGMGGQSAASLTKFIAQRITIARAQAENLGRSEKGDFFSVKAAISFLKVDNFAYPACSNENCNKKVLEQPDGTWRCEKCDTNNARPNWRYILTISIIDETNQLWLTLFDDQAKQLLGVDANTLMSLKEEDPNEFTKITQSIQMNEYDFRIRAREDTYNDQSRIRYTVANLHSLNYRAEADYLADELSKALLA
T1 sequence (P26754 whole entry, chain 2 of 3): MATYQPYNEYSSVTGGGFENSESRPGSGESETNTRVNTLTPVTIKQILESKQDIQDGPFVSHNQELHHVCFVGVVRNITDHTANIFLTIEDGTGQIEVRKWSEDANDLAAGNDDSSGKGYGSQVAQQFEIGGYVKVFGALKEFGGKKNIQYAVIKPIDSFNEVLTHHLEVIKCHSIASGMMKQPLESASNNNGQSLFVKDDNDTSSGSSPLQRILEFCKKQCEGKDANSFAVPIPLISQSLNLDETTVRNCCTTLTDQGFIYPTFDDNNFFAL
T1 sequence (P26755 whole entry, chain 3 of 3): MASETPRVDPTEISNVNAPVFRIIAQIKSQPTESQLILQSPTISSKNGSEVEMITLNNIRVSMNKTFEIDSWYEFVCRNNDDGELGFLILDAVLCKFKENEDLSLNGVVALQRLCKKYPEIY

Row | binding result | Binder
1 | binds | MBP-Ddc2 (natural protein, budding yeast, UniProt Q04377 1-747, looked up, Ddc2 (ATRIP homolog), budding yeast; also called MBP-fused Ddc2; pMAL-Ddc2; source: E. coli Rosetta, purified (amylose resin)) MRRETVGEFSSDDDDDILLELGTRPPRFTQIPPSSAALQTQIPTTLEVTTTTLNNKQSKNDNQLVNQLNKAQGEASMLRDKINFLNIEREKEKNIQAVKVNELQVKHLQELAKLKQELQKLEDEKKFLQMEARGKSKREVITNVKPPSTTLSTNTNTITPDSSSVAIEAKPQSPQSKKRKISDNLLKKNMVPLNPNRIIPDETSLFLESILLHQIIGADLSTIEILNRLKLDYITEFKFKNFVIAKGAPIGKSIVSLLLRCKKTLTLDRFIDTLLEDIAVLIKEISVHPNESKLAVPFLVALMYQIVQFRPSATHNLALKDCFLFICDLIRIYHHVLKVPIHESNMNLHVEPQIFQYELIDYLIISYSFDLLEGILRVLQSHPKQTYMEFFDENILKSFEFVYKLALTISYKPMVNVIFSAVEVVNIITSIILNMDNSSDLKSLISGSWWRDCITRLYALLEKEIKSGDVYNENVDTTTLHMSKYHDFFGLIRNIGDNELGGLISKLIYTDRLQSVPRVISKEDIGMDSDKFTAPIIGYKMEKWLLKLKDEVLNIFENLLMIYGDDATIVNGEMLIHSSKFLSREQALMIERYVGQDSPNLDLRCHLIEHTLTIIYRLWKDHFKQLREEQIKQVESQLIMSLWRFLVCQTETVTANEREMRDHRHLVDSLHDLTIKDQASYYEDAFEDLPEYIEEELKMQLNKRTGRIMQVKYDEKFQEMARTILESKSFDLTTLEEADSLYISMGL
2 | binds | MBP-Ddc2-S4 (natural protein, budding yeast, UniProt Q04377 1-747, looked up, Ddc2 (ATRIP homolog), budding yeast, with the two ddc2-S4 substitutions; also called MBP-fused Ddc2-S4; pMAL-Ddc2-S4; source: E. coli Rosetta, purified (amylose resin)) MRRETVGEFSSDDDDDILLELGTRPPRFTQIPPSSAALQTQIPTTLEVTTTTLNNKQSKNDNQLVNQLNKAQGEASMLRDKINFLNIEREKEKNIQAVKVNELQVKHLQELAKLKQELQKLEDEKKFLQMEARGKSKREVITNVKPPSTTLSTNTNTITPDSSSVAIEAKPQSPQSKKRKISDNLLKKNMVPLNPNRIIPDETSLFLESILLHQIIGADLSTIEILNRLKLDYITEFKFKNFVIAKGAPIGKSIVSLLLRCKETLTLDRFIDTLLEDIAVLIKEISVHPNESKLAVPFLVALMYQIVQFRPSATHNLALKDCFLFICDLIRIYHHVLKVPIHESNMNLHVEPQIFQYELIDYLIISYSFDLLEGILRVLQSYPKQTYMEFFDENILKSFEFVYKLALTISYKPMVNVIFSAVEVVNIITSIILNMDNSSDLKSLISGSWWRDCITRLYALLEKEIKSGDVYNENVDTTTLHMSKYHDFFGLIRNIGDNELGGLISKLIYTDRLQSVPRVISKEDIGMDSDKFTAPIIGYKMEKWLLKLKDEVLNIFENLLMIYGDDATIVNGEMLIHSSKFLSREQALMIERYVGQDSPNLDLRCHLIEHTLTIIYRLWKDHFKQLREEQIKQVESQLIMSLWRFLVCQTETVTANEREMRDHRHLVDSLHDLTIKDQASYYEDAFEDLPEYIEEELKMQLNKRTGRIMQVKYDEKFQEMARTILESKSFDLTTLEEADSLYISMGL
